Data: the domain aggregation screens of Martell et al. (2025)

Assay: soluble fraction after stress (log2 fold change); higher = more stays soluble; pooled small domains, quantitative proteomics
Conditions: stress: 50 degC
Outline: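 Custom libraries of small protein domains were pooled and measured in a high-throughput format, with quantitative proteomics as the read-out. Each library was stressed at 50°C. The value is the log2 fold change in the amount of each protein that stays soluble after stress, used as a measure of aggregation propensity; higher values mean more of the protein stays soluble.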

Row | Sequence | soluble fraction (log2)
1 | HMTENIPPVKIEEMRQKWQDIVLLHGVTSGRKIKSGQATYIWLYRNDQNWLLTFNSRHLSQPQV | 0.145
2 | HMSSEQRSVLFPNLAETDKVAVIEALMAAGVNARVDSASGRVTVPSGDYYNSRAILAAQGLPTS | 0.0696
3 | HMGTRYVEFVIPGTGNHEVRIVSSNGSRQNVEVAGTYPGGARLRTKVDNGVRRVSFYVDNRLVEEKQ | 0.0416
4 | HMSQKVQEDFLGDIRKNEIAVTVFLINGVKLQGVITWFDDASILLRRDGHTQLIYKHAVSTIMPGVAVDI | -0.118
5 | HMSSVHTMEVKSTTQIKVLDENKNLSSYYSMKNPVSFNYRLFFLNQDELKKLQEDLKTNNDIQSIDIKYA | -0.753
6 | HMISAADLQTYLKGMDYPAGREDLVAHAQRNNAPESVITILQGFSDRTYRSAAEVSEEFGRE | 0.194
7 | HMSPAPVSVDHLAFPTRDLEATDHFYSKVVGATLVHAESGYSPSWKSDYLLITYALPDGTRLSFFDWP | 0.0261
8 | HMLPNIKSEMEILGDNAKARLEAAELWSKKYLSNEAYDTMSKLATTADGVKAIEEIMNITKS | -0.0779
9 | HMDKRYYYRILGLVGEPTRDQIEAAYETRIAKLRSSDYGDDPLYARRKISEVTMAYKVLTGS | -0.281
10 | HMKKYDIKEAQEIAEINRIPGLVTTSHGRRVYFDPKIMQYVSEEQIVKKYGQKTVKMLDQWYVSNILNK | -0.0388
11 | HMKTKTFSPGEIVKIQTRDKSWQGTILESHDPEIILLKLTTGYNIGIRENEIINAKVIEKSKKDVKDAE | 0.183
12 | HMGEKFTFGQIAKAKAYAKTYANDMTSAVKNIEAIATGLSKHPEVADTLKKANENQELNRITKLAG | 0.149
13 | HMPAELGVVVRNANLRSGPGTKYAIVGSAPAGTTVRIAGTNKAGDWYHLSSGRWIAAFLVDRN | -0.941
14 | HMNARSTSYSDFIARVDKDEVASVRLDGETVTYQAADGTTYTTVKPESDPIAERLIAKGIEVNVVRQ | -0.49
15 | HMGNHRNMSAEEEAAILAPFKARAEAGELVEISEIAKAYQSAVDHPISRGQIYFVLHRHGWRKV | -0.926
16 | HMEDTVNVPIQINGKLRHVIQVQIGTSEEEIQKIALSEEQVKKFTDGHEILKVMVPKGKLVSIVI | -0.129
17 | HMASVRPVAPPDPKTHTRLTYRIRRGDTLERIGRRYRVSIAEIQAWNTLRDPGDILAGQRLVIWIPTS | -2.3
18 | HMAHYYVRNGYYYYQRRIPLDLRKFYSGANIKASLKTKDPAIAALFVAKFDRQYDAEFAQRRLNPD | -0.482
19 | HMHSQVFTDPDKAKNAVVKLGAPLVVKADGLALGKGVIIAQNPQAAKEAVASVGSSGISSISVT | 0.0607

Row | Sequence | soluble fraction (log2)
20 | HMTHEIKIKSHSLFASEGTKYQWYLNNIKINDATSQELEITSPGIYKLEMTNFDGDVIEKQIIVGLTNS | -2.94
21 | HMKFDVNAAIRAVLNVTVDKGATLERIMKETNLTSDQLVLPIALLMKTERLHFKRSGTHEVYVSVGKAPDK | -3.02
22 | HMRMTRQRKVILEELGKVYTHPTADEIYTMVKEKLPNISLGTVYRNLDLLAENNQVLKLETAGNIRRYD | -0.0847
23 | HMHDYYDSIDAVTHDKSYESNLVFALKLGYTETQLQKALLKLGKKAREDQILEELIRIQKSSKA | 0.114
24 | HMNMDLGHSISKLRTDANLTQEKFAQILNVSRQTVQKWEYGEALPDIHNIIKIAKFFNISLDALVLRS | -0.159
25 | HMGGKTAVVTGSLVNVRKGPGTGNALVGQVARGDELPVLGQDGDWYQIKLANGSNGWVAGWLVSLKDAVP | 0.432
26 | HMQATETFSLIVPMSSAGNRLDVVLSELLPNFSRKKIQDAIKNGDATLNGKAPKIRDKVYGGENITITLIL | -0.432
27 | HMQSRYALLAGMLRARITEGDWVPGSAIPAETVLAKEHGVALGTMRQAIALLVSQGLLERQHGRGTFVRS | -1.16
28 | HMKPSKTDEAEYWLMERLEEGPQPAGDLIRIGEEFGYTPKILRDAGERFNMERYKDGLDHWMWKLPN | -0.0945
29 | HMHVYSYPAAVKIKNAVGREMMVTLLGRSGTHVQFARQDGEEFVYPISSLDLAAQTLISKYPNDGIKN | -0.444
30 | HMAEMLENQLKHAKSKQEANEYIAAAIGGVSDDDPDKEYLVAAYNEISKEFHHSSAYHRLPDT | -0.0511
31 | HMDDGALQIRLGPQALQQRLDKLGYSLNKEDLDLVYQYFLHSADSKGAVYDQELRELMGEAGVE | -0.0408
32 | HMRTVLSDETYLRIREMLLTHDIAPGERINIDALARELDVSQTPVREALARLESEDLVTKEPLRGYTATK | -0.017
33 | HMEDVLVTQIIQLKHVDANDMKTLFTPLLSRGSSQLLAYPQSNVLIITDTRSNIKKITEILDIIDKS | -0.629
34 | HMIKSMTGYGSAKGTVEGIEVSVELKSVNNKFLDTSIRLPRSFLFAEETIKQAVSSHISRGKVDVFVSVDS | ≥ 0.62
35 | HMRLIALPSVTDISIRQAEATLMSIGIKVSSIQYAPSEYKDLVLEVKYRGQSIIQGAKIPEGSSVVLVAGN | -1.56
36 | HMGELDPKIIAQINTFLQGITKLIEHPGNKDAKKTALGALHKLTFDQNITANFGKQLGQLDQVIQSSEET | 0.112
37 | HMQEEMIRGDIKLNTVMQTVHLAVGTETERNWQPVETTAKEFELLKLLMENPGVTLKKEYLFHMLI | -0.102
